Data: patent US20240294595A1, “GLYCOPEPTIDES AND USES THEREOF” (Arizona Board of Regents on Behalf of the University of …, priority 2013, published 2024)
Where no end group is shown, it is not given here. [ ]: non-standard residue; d: D form. The star is where a group is joined. βGlc = OC[C@H]1O[C@@H](*)[C@H](O)[C@@H](O)[C@@H]1O; Nle = CCCC[C@H](N)C(=O)O

B1: Hs…Ñ…-Ser(Glc) (peptide)
peptide: HSDGIFTDSYSRYRKQXAVKKYLAAVLS
modifications: here or on the partner: D-Serine at 2 (s); L-Nor-Leucine at 17 (Ñ, written X in letters); Ser 28 = L-Ser(β-D-Glc)
B2: Hs…Ñ…-Ser(Glc) (peptide)
peptide: HSDGIFADSYSRYRKQXAVKKYLAAVLS
modifications: here or on the partner: D-Serine at 2 (s); L-Nor-Leucine at 17 (Ñ, written X in letters); Ser 28 = L-Ser(β-D-Glc)
B3: Hs…Ñ…-Ser(Glc) (peptide)
peptide: HSDGIFTDSYSRYRKQXAVKKYLAAVS
modifications: here or on the partner: D-Serine at 2 (s); L-Nor-Leucine at 17 (Ñ, written X in letters); Ser 27 = L-Ser(β-D-Glc)
B4: PACAP6-38 (peptide)
peptide: FTDSYSRYRKQMAVKKYLAAVLGKRYKQRVKNK
modifications: ends and bridges not checked
B5: PACAP1-27 (peptide)
peptide: HSDGIFTDSYSRYRKQMAVKKYLAAVL
modifications: ends and bridges not checked
B6: PACAP1-27-S-G (peptide)
peptide: HSDGIFTDSYSRYRKQMAVKKYLAAVLS
modifications: here or on the partner: added C-terminal serine carries glucose (serine glucoside)
B7: …-Ser(Mel) (peptide)
peptide: HSDGIFTDSYSRYRKQLAVKKYLAAVLS(melibiose)-NH2
B8: Hs…Ñ…-Ser(Glc)-L (peptide)
peptide: H[dS]DGIFTDSYSRYRKQ[Nle]AVKKYLAALS(βGlc)L-NH2
modifications: ends and bridges not checked

Biological target: human PAC1 receptor (PAC1-CHO clonal cell line) (human), P41586
Sequence (P41586 21-468): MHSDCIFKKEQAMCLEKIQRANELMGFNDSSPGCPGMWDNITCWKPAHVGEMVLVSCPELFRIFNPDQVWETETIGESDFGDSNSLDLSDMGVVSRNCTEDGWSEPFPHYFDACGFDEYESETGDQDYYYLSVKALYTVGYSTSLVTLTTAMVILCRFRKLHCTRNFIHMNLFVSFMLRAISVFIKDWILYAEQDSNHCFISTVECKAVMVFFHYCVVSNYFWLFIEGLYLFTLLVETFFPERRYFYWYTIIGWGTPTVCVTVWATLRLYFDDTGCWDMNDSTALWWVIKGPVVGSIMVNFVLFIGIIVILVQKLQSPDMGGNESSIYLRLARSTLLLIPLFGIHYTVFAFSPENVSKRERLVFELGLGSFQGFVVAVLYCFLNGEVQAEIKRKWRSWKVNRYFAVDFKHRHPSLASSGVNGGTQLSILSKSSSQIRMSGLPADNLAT
Assay: cell-based or functional assay

| Binder | EC50 (agonist) | EMax (agonist) | other results |
| --- | --- | --- | --- |
| B1 | 25.5 nM | 85% | – |
| B2 | > 250 nM | -71% | – |
| B3 | 54.5 nM | 86% | – |
| B4 | – | – | antagonist potency, variable concentration mode versus 5 nM PACAP1-27 (calcium flux, FLIPR): > 333 nM; pA2 (Gaddum/Schild EC50 shift model): 201 nM |
| B5 | – | 100% | – |
| B6 | – | – | normalized efficacy (calcium flux, FLIPR; PACAP1-27 = 100%): 102%; potency of PAC1 activation (calcium flux, FLIPR, agonist mode, PAC1-CHO cells): 5.68 nM |
| B7 | 0.57 nM | 99% | – |
| B8 | > 250 nM | -79% | – |
